Measurements as given in patent US6852686B2, “Methods for ameliorating icthyosiform skin diseases” (The United States of America as represented by the …, priority 1999, dated 2005).
Read-outs that look alike come from different tables or passages of the source.

Assays:
TGase 1 [1] = biological target: T1, TGase 1 (Homo sapiens, UniProt P22735); assay: Lipid Z esterification of involucrin by TGase 1 on SLV; assay type: biochemical
T1 construct: Recombinant full-length human TGase 1 and TGase 3 enzymes were expressed in Sf9 cells by the BaculoGold system; made in house; host or cells: Sf9 insect cells, BaculoGold baculovirus system, pVL1392 vector
T1 sequence (P22735 1-817): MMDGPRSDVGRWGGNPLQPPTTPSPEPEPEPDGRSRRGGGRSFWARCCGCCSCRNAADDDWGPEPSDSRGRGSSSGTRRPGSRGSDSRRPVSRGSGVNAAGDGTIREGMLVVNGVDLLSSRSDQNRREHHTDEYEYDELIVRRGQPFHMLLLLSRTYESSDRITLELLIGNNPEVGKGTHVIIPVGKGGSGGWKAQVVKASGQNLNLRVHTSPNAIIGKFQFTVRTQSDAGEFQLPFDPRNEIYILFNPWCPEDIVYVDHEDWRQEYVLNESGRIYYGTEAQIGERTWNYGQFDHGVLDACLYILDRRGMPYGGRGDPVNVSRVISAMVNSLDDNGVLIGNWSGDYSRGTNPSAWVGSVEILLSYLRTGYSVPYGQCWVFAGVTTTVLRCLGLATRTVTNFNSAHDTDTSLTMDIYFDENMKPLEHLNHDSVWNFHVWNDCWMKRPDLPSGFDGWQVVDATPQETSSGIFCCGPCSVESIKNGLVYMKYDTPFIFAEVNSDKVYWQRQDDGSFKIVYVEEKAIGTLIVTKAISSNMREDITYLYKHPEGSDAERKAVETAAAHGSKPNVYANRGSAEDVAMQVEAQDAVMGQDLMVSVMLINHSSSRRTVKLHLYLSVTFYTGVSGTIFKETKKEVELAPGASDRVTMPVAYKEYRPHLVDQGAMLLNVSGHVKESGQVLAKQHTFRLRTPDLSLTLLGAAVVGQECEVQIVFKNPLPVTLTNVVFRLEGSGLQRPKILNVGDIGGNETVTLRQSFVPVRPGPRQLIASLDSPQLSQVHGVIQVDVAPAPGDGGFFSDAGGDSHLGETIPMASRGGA
Description: A mixture of 54 mol % dimyristoyl-phosphatidylcholine, 15 mol % dipalmitoyl-phosphatidylserine, 30 mol % cholesterol (all from Sigma, St. Louis, Mo.) and 1 mol % lipid Z was made in chloroform: methanol (9:1). This solution was dried down, taken up in aqueous buffer and dispersed by sonication as before (Nemes et al., J. Biol. Chem., 274: in press (1999)). The SLV suspension was equipped with TGase 1 enzyme by incubation at 37° C. for 15 min prior to adding substrates.
The reactions were stopped by the addition of EDTA to 10 mM.
Following reaction, 0.1 ml 20% SDS in water was added to the samples and the mixture was vortexed. This mixture was precipitated and washed three times with acetone-triethylamine-acetic acid (90:5:5) to remove the SDS and the unbound lipids (Konigsberg, W. H. and L. Henderson, Meth. Enzymol., 91: 254-259 (1983), herein expressly incorporated by reference in its entirety). After further washing with acetone the pellet was dried under vacuum and redissolved in 50 mM Tris-HCl (pH 7.5). Resolubilized protein was digested for 16 h with 2 mol % modified trypsin (Boehringer Mannheim). Peptides were resolved on a 250×2 mm PrimesphereC4 HPLC column (Phenomenex) and separated using a gradient elution from 75% buffer A (0.1% TFA in water) to 75% buffer B (50% 2-propanol in acetonitrile) in 40 min. Under these conditions, lipo-peptides were retarded but free peptides elute with the solvent front (Marekov, L. N. and P. M. Steinert, J. Biol. Chem., 273: 17763-17770 (1998), herein expressly incorporated by reference in its entirety).
Amino acid analysis of hydrolyzed samples (5.7 N HCl at 110° C. for 24 h in vacuo) was used to routinely measure amounts of lipo-peptides. Aliquots of isolated lipo-peptide peaks were attached to a solid support for sequencing (Marekov, L. N. and P. M. Steinert, J. Biol. Chem., 273: 17763-17770 (1998), herein expressly incorporated by reference in its entirety). Saponification of lipo-peptides was done with 1 N KOH in 80% methanol for 2 h at 37° C., after which the solution was acidified, dried and peptides were recovered by HPLC on a C18 column.

TGase 1 [2] = biological target: T1, TGase 1; assay: as above; assay type: biochemical; remark: listed apart in the source
TGase 1 [3] = biological target: T1, TGase 1; assay: Kinetic parameters of 14C-putrescine incorporation by TGase 1; assay type: biochemical; conditions: for Km: KM pertains to the protein substrate, read-out: KM(app); for Vmax / kcat(putrescine): putrescine incorporation, 37° C.
Description: One possibility is that this KM increase is due to the reduced diffusional mobility of the enzyme after attachment to the SLV. […] (Table 1). One reason for this is that a reduced access to many of the Gln residues occurs after anchorage of the enzyme. On the other hand, the Vmax value for the recombinant SPR2 substrate was almost unchanged.
The reaction rates were quantified by measuring the incorporated radioactivity as before (Thomas, M. V., Cellular Calcium, McCormack, et al., eds., pp. 115-123 (1991), herein expressly incorporated by reference in its entirety). Kinetic constants were obtained using the curve-fitting and regression analysis Sigmaplot 4.0 software. All data points represent the means of three measurements, each performed in triplicate.

[4] = test system: synthetic lipid vesicles (SLV); assay: Membrane association (binding) to synthetic lipid vesicles, SLV pelleted by ultracentrifugation
Description: Mixtures of dipalmitoyl-phosphatidylcholine, cholesterol, dipalmitoyl-phosphatidylserine (PS) and other lipids where indicated (all from Sigma, St. Louis, Mo.) were made in chloroform-methanol (95:5). In all cases, the mixtures contained 30% cholesterol. When the amounts of PS or other individual components were varied, phosphatidylcholine was added to make the mixture to 100%. Mixtures were made in 0.5 ml and contained 10 μmol of total lipids. The solvent was flushed away under a stream of N2, dried further under high vacuum for 4 h and then resuspended by vortexing in 0.5 ml of a buffer containing 50 mM Tris-Cl (pH 8.0), 100 mM NaCl, 3 mM NaN3, 5 mM DTT, and 200 mM sucrose. The mixture was sonicated on ice five times each for 1 min using a Branson 250 sonifier with micro probe tip, and allowed to stand at 23° C. to facilitate assembly of SLV. After 1 h the SLV were diluted with 0.5 ml of the above buffer without sucrose, and 200 μl aliquots were centrifuged at 100,000× g for 30 min in a Beckman Airfuge using the A-10 rotor. The top 175 μl was removed, and the pellet resuspended in another 150 μl of sucrose-free buffer. The final stock concentration was 11 μmol/ml.
In all cases, the buffer contained 50 mM Tris-HCl (pH 8.0), 100 mM NaCl, 1 mM DTT, 3 mM NaN3, and other additives where noted. Some mixtures also contained 1 mM CaCl2 or 2 mM EDTA. After mixing, the samples were centrifuged for 45 min at 100,000× g, and the protein content from 50 μl of supernatant was determined by amino acid analysis after acid hydrolysis. Data were usually not corrected for loss of SLV lipids, as in control experiments, cumulated losses were <4% as assayed by ^14C-phosphatidylcholine tracer, and thus neglected from the calculations.
The Ca^++ concentrations in the μM range were set by buffering free Ca^++ with chelators The desired Ca^++/chelator ratios were calculated by the WinMaxC 1.7 computer program (Bers, et al., Methods in Cell Biology Vol 40: A Practical Guide to the Study of Ca^2+ in Living Cells, Nuccitelli, R., ed., pp. 1-327 (1994), herein expressly incorporated by reference in its entirety), and were made by adding the required amounts of 1 M CaCl2 to 0.2 M stock solutions of the following chelators at pH 8.0. Final chelator concentrations in the samples were 10 mM in all cases. Sodium citrate was the chelator for the 20-500 μM Ca^++ range; sodium nitrilotriacetate for the 1-20 μM Ca^++ range; and sodium 1,2-bis(aminophenoxy)ethane-N,N,N′,N′ tetraacetate for the 0.1-1 μM Ca^++ range.

TGase 1 [5] = biological target: T1, TGase 1; assay: 14C-putrescine labeling of involucrin Gln residues by TGase 1; assay type: biochemical
Description: This was set far below saturating amounts on SLV in order to ensure that all enzyme was bound to the SLV.
After 4 h incubation at 37° C., the reactions were stopped by addition of EDTA to 10 mM and 100 μl 20% SDS, and vortexed. This mixture was precipitated and washed three times with acetone-triethylamine-acetic acid (90:5:5) (Konigsberg, W. H. and L. Henderson, Meth. Enzymol., 91: […] (1983), herein expressly incorporated by reference in its entirety) to remove the SDS and the lipids. After repeated washings with acetone, the pellet was redissolved in a buffer of 50 mM Tris-Cl (pH 7.5), and digested for 16 h at 37° C. with 2% (by weight) of modified trypsin (Boehringer Mannheim, Indianapolis, Ind.). Aliquots of 20 μg were resolved on a 250×4.6 mm Beckman Ultrasphere C18 HPLC column. Separated peaks were analyzed for radioactivity and peaks containing activity were attached to a solid support for sequencing as before (Steinert, P. M. and L. N. Marekov, J. Biol. Chem., 270: 17702-17711 (1995), herein expressly incorporated by reference in its entirety). As the peptide number 40 eluted by 50% acetonitrile (see FIG. 9) was too long for direct sequencing, it was subjected to limited proteolysis by dispase and was sequenced from four peptides isolated by HPLC chromatography as above. […]

[6] = 0.3 nmol involucrin/μmol lipid, 4 h reaction
[7] = SLV containing 15% PS compared to solubilized TGase 1 and soluble involucrin

CCCCCCCCCCCCC/C=C/[C@@H](O)[C@H](CO)NC(=O)CCCCCCCCCCCCCCCOCCCCCCCCCCCCCCCCO [lipid Z, N-[16-(16-hydroxyhexadecyl)oxypalmitoyl]-sphingosine]
maximum lipid ester formation for Gln 496 (TGase 1 [1]; [6]): < 0.05 mol/mol
maximum lipid ester formation per mole of Gln residues 107, 118, 122, and 133 (TGase 1 [1]; [6]): 0.1 to 0.3 mol/mol
incorporation rate into involucrin (TGase 1 [1]; SLV formulations with 1 mol % lipid Z): 2.2±0.3 fmol of lipid Z/s
involucrin-lipid adduct formation by TGase 1 on SLV membranes (TGase 1 [1]; ceramide incorporated in SLV): formed saponifiable protein-lipid adducts
amount incorporated into SLV without interference with SLV stability or binding of involucrin and TGase 1 (TGase 1 [2]): ≤ 25 mol %
KM of lipid Z incorporation into involucrin (TGase 1 [2]; rate linear up to 25 mol % lipid Z in SLV): > 100 mol %

B1: Involucrin: recombinant purified human involucrin expressed in E. coli (protein)
chain: MSQQHTLPVTLSPALSQELLKTVPPPVNTHQEQMKQPTPLPPPCQKVPVELPVEVPSKQEEKHMTAVKGLPEQECEQQQKEPQEQELQQQHWEQHEEYQKAENPEQQLKQEKTQRDQQLNKQLEEEKKLLDQQLDQELVKRDEQLGMKKEQLLELPEQQEGHLKHLEQQEGQLKHPEQQEGQLELPEQQEGQLELPEQQEGQLELPEQQEGQLELPEQQEGQLELPEQQEGQLELPQQQEGQLELSEQQEGQLELSEQQEGQLKHLEHQEGQLEVPEEQMGQLKYLEQQEGQLKHLDQQEKQPELPEQQMGQLKHLEQQEGQPKHLEQQEGQLEQLEEQEGQLKHLEQQEGQLEHLEHQEGQLGLPEQQVLQLKQLEKQQGQPKHLEEEEGQLKHLVQQEGQLKHLVQQEGQLEQQERQVEHLEQQVGQLKHLEEQEGQLKHLEQQQGQLEVPEQQVGQPKNLEQEEKQLELPEQQEGQVKHLEKQEAQLELPEQQVGQPKHLEQQEKHLEHPEQQDGQLKHLEQQEGQLKDLEQQKGQLEQPVFAPAPGQVQDIQPALPTKGEVLLPVEHQQQKQEVQWPPKHK
decrease of KM (TGase 1 [3]; [7]): approximately 40 fold
decrease of kcat value (TGase 1 [3]; [7]): 200 fold
kinetic parameters as a substrate (TGase 1 [3]; SLV formulated in the absence of PS): immeasurably low
Km (TGase 1 [3]; SLV-bound TGase 1 (15% PS)): 2.9 ± 0.4 µM
Vmax (TGase 1 [3]; SLV-bound TGase 1 (15% PS)): 2.4 ± 0.4 pmol/min
kcat(putrescine) (TGase 1 [3]; SLV-bound TGase 1 (15% PS)): 0.0425 s⁻¹
Vmax (TGase 1 [3]; Solubilized TGase 1, 0.94 pmol): 482 ± 37 pmol/min
kcat(putrescine) (TGase 1 [3]; Solubilized TGase 1, 0.94 pmol): 8.55 s⁻¹
Km (TGase 1 [3]; Solubilized TGase 1): 114 ± 19 µM
Ca++ concentration above which binding to SLV occurs ([4]; SLV containing 12-18% phosphatidylserine): above 1 μM
amount saturating SLV ([4]; SLVs containing 15-30% PS): 0.43±0.02 nmol involucrin/μmol lipid
free Ca++ concentration at which binding to SLVs was first detected ([4]; SLVs containing 15 mol % PS): 1 :M
free Ca++ concentration for maximal binding to SLVs ([4]; SLVs containing 15 mol % PS, saturating involucrin): > 20 µM
putrescine incorporated (TGase 1 [5]; membrane-bound TGase 1 (Sf9 particulate membranes or SLV with 15% PS)): approximately 1 mol of putrescine/mol of invol
putrescine incorporated (TGase 1 [5]; solubilized recombinant TGase 1, no membranes or SLV, 20 mM putrescine, 4 h, 37° C.): about 20 mol of putrescine incorporated/mol of involucrin
